# Measurements reported in US20240270846A1 (published 2024).
# Changes are numbered by the printed parent chain.
# B1: CE115HA000 H chain altered form T57N (antibody, human IgG1, kappa, L234A L235A, N297A, name in Kabat numbering)
# heavy: QVQLVESGGGVVQPGRSLRLSCAASGFTFSNAWMHWVRQAPGKGLEWVAQIKAKSNNYANYYAESVKGRFTISRDDSKNSLYLQMNSLKTEDTAVYYCRYVHYGAYYGVDAWGQGTTVTVSSASTKGPSVFPLAPSSKSTSGGTAALGCLVKDYFPEPVTVSWNSGALTSGVHTFPAVLQSSGLYSLSSVVTVPSSSLGTQTYICNVNHKPSNTKVDKKVEPKSCDKTHTCPPCPAPEAAGGPSVFLFPPKPKDTLMISRTPEVTCVVVDVSHEDPEVKFNWYVDGVEVHNAKTKPREEQYASTYRVVSVLTVLHQDWLNGKEYKCKVSNKALPAPIEKTISKAKGQPREPQVYTLPPSRCELTKNQVSLSCAVKGFYPSDIAVEWESNGQPENNYKTTPPVLDSDGSFFLVSKLTVDKSRWQQGNVFSCSVMHEALHNHYTQKSLSLSPDYKDDDDK
# chain: EPKSSDKTHTCPPCPAPELLGGPSVFLFPPKPKDTLMISRTPEVTCVVVDVSHEDPEVKFNWYVDGVEVHNAKTKPREEQYNSTYRVVSVLTVLHQDWLNGKEYKCKVSNKALPAPIEKTISKAKGQPREPQVCTLPPSRDELTKNQVSLWCLVKGFYPSDIAVEWESNGQPENNYKTTPPVLDSDGSFFLYSKLTVDKSRWQQGNVFSCSVMHEALHNRYTQKSLSLSP
# light: DIVMTQSPLSLPVTPGEPASISCRSSQSLVHSNRNTYLHWYQQKPGQAPRLLIYKVSNRFSGVPDRFSGSGSGTDFTLKISRVEAEDVGVYYCGQGTQVPYTFGQGTKLEIKRTVAAPSVFIFPPSDEQLKSGTASVVCLLNNFYPREAKVQWKVDNALQSGNSQESVTEQDSKDSTYSLSSTLTLSKADYEKHKVYACEVTHQGLSSPVTKSFNRGEC
# notes: one-arm antibody
# B2: CE115HA000 H chain altered form W33F (antibody, human IgG1, kappa, L234A L235A, N297A, name in Kabat numbering)
# heavy: B1 heavy with W33F, N60T
# chain: B1 chain
# light: B1 light
# notes: one-arm antibody
# B3: CE115HA000 H chain altered form V11L (antibody, human IgG1, kappa, L234A L235A, N297A, name in Kabat numbering)
# heavy: B1 heavy with V11L, N60T
# chain: B1 chain
# light: B1 light
# notes: one-arm antibody
# B4: CE115HA000 H chain altered form Y55S (antibody, human IgG1, kappa, L234A L235A, N297A, name in Kabat numbering)
# heavy: B1 heavy with Y58S, N60T
# chain: B1 chain
# light: B1 light
# notes: one-arm antibody
# B5: CE115HA000 H chain altered form W33A (antibody, human IgG1, kappa, L234A L235A, N297A, name in Kabat numbering)
# heavy: B1 heavy with W33A, N60T
# chain: B1 chain
# light: B1 light
# notes: one-arm antibody
# B6: CE115HA000 H chain altered form W33D (antibody, human IgG1, kappa, L234A L235A, N297A, name in Kabat numbering)
# heavy: B1 heavy with W33D, N60T
# chain: B1 chain
# light: B1 light
# notes: one-arm antibody
# B7: CE115HA000 H chain altered form Y59A (antibody, human IgG1, kappa, L234A L235A, N297A, name in Kabat numbering)
# heavy: B1 heavy with N60T, Y62A
# chain: B1 chain
# light: B1 light
# notes: one-arm antibody
# B8: CE115HA000 H chain altered form Y55D (antibody, human IgG1, kappa, L234A L235A, N297A, name in Kabat numbering)
# heavy: B1 heavy with Y58D, N60T
# chain: B1 chain
# light: B1 light
# notes: one-arm antibody
# B9: CE115HA000 H chain altered form Y59S (antibody, human IgG1, kappa, L234A L235A, N297A, name in Kabat numbering)
# heavy: B1 heavy with N60T, Y62S
# chain: B1 chain
# light: B1 light
# notes: one-arm antibody
# B10: CE115HA000 H chain altered form W33L (antibody, human IgG1, kappa, L234A L235A, N297A, name in Kabat numbering)
# heavy: B1 heavy with W33L, N60T
# chain: B1 chain
# light: B1 light
# notes: one-arm antibody
# B11: CE115HA000 H chain altered form Y58S (antibody, human IgG1, kappa, L234A L235A, N297A, name in Kabat numbering)
# heavy: B1 heavy with N60T, Y61S
# chain: B1 chain
# light: B1 light
# notes: one-arm antibody
# B12: CE115HA000 H chain altered form W33H (antibody, human IgG1, kappa, L234A L235A, N297A, name in Kabat numbering)
# heavy: B1 heavy with W33H, N60T
# chain: B1 chain
# light: B1 light
# notes: one-arm antibody
# B13: CE115HA000 H chain altered form Y58Q (antibody, human IgG1, kappa, L234A L235A, N297A, name in Kabat numbering)
# heavy: B1 heavy with N60T, Y61Q
# chain: B1 chain
# light: B1 light
# notes: one-arm antibody
# B14: CE115HA000 H chain altered form Y55G (antibody, human IgG1, kappa, L234A L235A, N297A, name in Kabat numbering)
# heavy: B1 heavy with Y58G, N60T
# chain: B1 chain
# light: B1 light
# notes: one-arm antibody
# B15: CE115HA000 H chain altered form Y58N (antibody, human IgG1, kappa, L234A L235A, N297A, name in Kabat numbering)
# heavy: B1 heavy with N60T, Y61N
# chain: B1 chain
# light: B1 light
# notes: one-arm antibody
# B16: CE115HA000 H chain altered form Y59D (antibody, human IgG1, kappa, L234A L235A, N297A, name in Kabat numbering)
# heavy: B1 heavy with N60T, Y62D
# chain: B1 chain
# light: B1 light
# notes: one-arm antibody
# B17: CE115HA000 H chain altered form Y59E (antibody, human IgG1, kappa, L234A L235A, N297A, name in Kabat numbering)
# heavy: B1 heavy with N60T, Y62E
# chain: B1 chain
# light: B1 light
# notes: one-arm antibody
# B18: CE115HA000 H chain altered form Y58L (antibody, human IgG1, kappa, L234A L235A, N297A, name in Kabat numbering)
# heavy: B1 heavy with N60T, Y61L
# chain: B1 chain
# light: B1 light
# notes: one-arm antibody
# B19: CE115HA000 H chain altered form Y58A (antibody, human IgG1, kappa, L234A L235A, N297A, name in Kabat numbering)
# heavy: B1 heavy with N60T, Y61A
# chain: B1 chain
# light: B1 light
# notes: one-arm antibody
# B20: CE115HA000 H chain altered form W33Y (antibody, human IgG1, kappa, L234A L235A, N297A, name in Kabat numbering)
# heavy: B1 heavy with W33Y, N60T
# chain: B1 chain
# light: B1 light
# notes: one-arm antibody
# B21: CE115HA000 H chain altered form Y58K (antibody, human IgG1, kappa, L234A L235A, N297A, name in Kabat numbering)
# heavy: B1 heavy with N60T, Y61K
# chain: B1 chain
# light: B1 light
# notes: one-arm antibody
# B22: CE115HA000 H chain altered form Y58D (antibody, human IgG1, kappa, L234A L235A, N297A, name in Kabat numbering)
# heavy: B1 heavy with N60T, Y61D
# chain: B1 chain
# light: B1 light
# notes: one-arm antibody
# Target: T1, CD3 epsilon homodimer protein (UniProt P07766 23-126)
# T1 construct: also called CD3 (CD3 epsilon)
# Assay: SPR Biacore T200, CD3 epsilon homodimer on chip, antibody as analyte;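 further: homodimer amine-coupled to a CM4 sensor chip, run at 25 °C in HBS-EP+ buffer, with kinetic parameters derived in Biacore T200 Evaluation Software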
# T1 sequence (P07766 23-126): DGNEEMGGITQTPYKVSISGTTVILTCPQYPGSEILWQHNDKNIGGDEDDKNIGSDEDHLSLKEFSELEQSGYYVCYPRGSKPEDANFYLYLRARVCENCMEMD
row,Binder,KD ratio (KD of CE115HA000 / KD of altered form)
1,B1,0.9
2,B2,0.66
3,B3,0.83
4,B4,5.65
5,B5,30
6,B6,1690
7,B7,0.74
8,B8,0.89
9,B9,0.79
10,B10,56600
11,B11,1.22
12,B12,4.96
13,B13,1.24
14,B14,0.99
15,B15,1.86
16,B16,0.66
17,B17,0.61
18,B18,1.21
19,B19,1.06
20,B20,0.69
21,B21,0.66
22,B22,4.81
